Test results from patent US5723307A, “Fluorogenic substrates for assay of angiotensin converting enzyme” (Development Center for Biotechnology, priority 1995, dated 1998).
Starred links: 1 amine or outer side, 2 acyl side, 3 side chain; linkers in the order of their positions; H or OH if unused. Non-standard residues stand in square brackets, D forms with d. Residues, ends and D or L forms follow the SMILES beside them. *: point of attachment. Phe(4-NO2) = N[C@@H](Cc1ccc([N+](=O)[O-])cc1)C(=O)O; EDANS = O=S(=O)(O)c1cccc2c(NCCN*)cccc12; Suc = O=C(CCC(=O)[*:2])[*:1]; 2Abz = Nc1ccccc1C(=O)O

Columns and labels:
[1] = solubility in aqueous buffer; type: physicochemical
ACE = details: from literature, cited from earlier work; for Km: Ref. [16]-[20]
[2] = substrate: O=C(O)CNC(=O)[C@H](Cc1c[nH]c2ccccc12)NC(=O)[C@H](Cc1ccccc1)NC(=O)CCC(=O)NCCNc1cccc2c(S(=O)(=O)O)cccc12; assay: continuous spectrofluorometric assay of hydrolysis of fluorogenic substrates by ACE (kinetic parameters); type: biochemical, rabbit; details: other: 0.05M Hepes buffer pH 8.2, 0.2M NaCl, 1M Na2SO4, Lineweaver-Burk, ex 286 nm, em 360 nm, 37.0 °C
Method: (§1) Fluorescence data were recorded on a HITACHI Model F2000 fluorescence spectrophotometer (Tokyo, Japan) set at wavelengths of 286 nm (excitation)and 360 nm (emission). The rates of enzymatic hydrolysis of the fluorogenic compounds ES-FWF, ES-FWG, ES-FWH, ES-FWK, ES-FWL and ES-FHW were monitored fluorospectrophotometrically as follows: A solution of ACE was prepared at 1.3×10^-2 units/ml (concentration of enzyme was estimated by using the Bio-Rad protein assay kit with bovine serum albumin as a standard). […] Activity was assayed with hippuryl-L-histidyl-L-leucine as a substrate. One unit of enzyme activity is the amount required to catalyze the formation of 1.0 μmol of hippuric acid per minute (in 50 mM Hepes, pH 8.3, and 0.3M NaCl at 37° C.). For fluorescence measurement, 20 μl of enzyme solution was added to 0.5 ml substrate solution (2×10^-6 -6.5×10^-5 M) in 0.05M Hepes buffer, pH 8.2, containing 0.2M NaCl and 1M Na2 SO4, placed in an optical cell. […] The increase in fluorescence (emission at 360 nm, excitation at 286 nm) with time, in the presence of the enzyme, was recorded continuously. Since the product (and perhaps the substrate as well) is subject to photodecomposition, the slit width of the excitation monochromator must not be too large. Alternatively, the reaction can be monitored automatically by pulse illumination with a time interval of 150, sec, as shown in FIG. 1.
(§2) Dependence of the rate of hydrolysis on substrate concentration was established by initial rate measurements (within the first 10% of hydrolysis). The slope of the line was translated into molar concentrations of the released dipeptides using a calibration curve constructed by fluorescence measurements of solutions containing authentic dipeptide under identical conditions. Km values were calculated by the method of Lineweaver-Burk plots. Five points with approximately equidistance on the 1/[S] abscissa were obtained from the average of two independent measurements. Kinetic parameters for other substrates were also obtained by similar procedures.
(§3) Kinetic parameters of ES-FWF, ES-FWG, ES-FWH, ES-FWK, ES-FWL and ES-FHW for ACE were obtained by continuous spectrofluorometric assay, and the results are listed in Table I. In order to compare the characteristics of the ES-peptides with those of previously reported fluorogenic substrates, the kinetic parameters from literatures were collected for comparison.

[3] = substrate: O=C(CCC(=O)N[C@@H](Cc1ccccc1)C(=O)N[C@@H](Cc1c[nH]cn1)C(=O)N[C@@H](Cc1c[nH]c2ccccc12)C(=O)O)NCCNc1cccc2c(S(=O)(=O)O)cccc12; assay: as above; type: biochemical, rabbit; details: other: 0.05M Hepes buffer pH 8.2, 0.2M NaCl, 1M Na2SO4, Lineweaver-Burk, ex 286 nm, em 360 nm, 37.0 °C
Method: as §1, §2, §3

[4] = substrate: NCCCC[C@H](NC(=O)[C@H](Cc1c[nH]c2ccccc12)NC(=O)[C@H](Cc1ccccc1)NC(=O)CCC(=O)NCCNc1cccc2c(S(=O)(=O)O)cccc12)C(=O)O; assay: as above; type: biochemical, rabbit; details: other: 0.05M Hepes buffer pH 8.2, 0.2M NaCl, 1M Na2SO4, Lineweaver-Burk, ex 286 nm, em 360 nm, 37.0 °C
Method: as §1, §2, §3

[5] = substrate: CC(C)C[C@H](NC(=O)[C@H](Cc1c[nH]c2ccccc12)NC(=O)[C@H](Cc1ccccc1)NC(=O)CCC(=O)NCCNc1cccc2c(S(=O)(=O)O)cccc12)C(=O)O; assay: as above; type: biochemical, rabbit; details: other: 0.05M Hepes buffer pH 8.2, 0.2M NaCl, 1M Na2SO4, Lineweaver-Burk, ex 286 nm, em 360 nm, 37.0 °C
Method: as §1, §2, §3

[6] = substrate: O=C(CCC(=O)N[C@@H](Cc1ccccc1)C(=O)N[C@@H](Cc1c[nH]c2ccccc12)C(=O)N[C@@H](Cc1ccccc1)C(=O)O)NCCNc1cccc2c(S(=O)(=O)O)cccc12; assay: as above; type: biochemical, rabbit; details: other: 0.05M Hepes buffer pH 8.2, 0.2M NaCl, 1M Na2SO4, Lineweaver-Burk, ex 286 nm, em 360 nm, 37.0 °C
Method: as §1, §2, §3

[7] = substrate: O=C(CCC(=O)N[C@@H](Cc1ccccc1)C(=O)N[C@@H](Cc1c[nH]c2ccccc12)C(=O)N[C@@H](Cc1c[nH]cn1)C(=O)O)NCCNc1cccc2c(S(=O)(=O)O)cccc12; assay: as above; type: biochemical, rabbit; details: other: 0.05M Hepes buffer pH 8.2, 0.2M NaCl, 1M Na2SO4, Lineweaver-Burk, ex 286 nm, em 360 nm, 37.0 °C
Method: as §1, §2, §3

O=C(CCC(=O)N[C@@H](Cc1ccccc1)C(=O)N[C@@H](Cc1c[nH]c2ccccc12)C(=O)N[C@@H](Cc1ccccc1)C(=O)O)NCCNc1cccc2c(S(=O)(=O)O)cccc12 [ES-FWF] ({EDANS-Suc}-Phe-Trp-Phe-OH)
solubility [1]: 7000 to 40000 µg/mL

Nc1ccccc1C(=O)NCC(=O)N[C@@H](Cc1ccc([N+](=O)[O-])cc1)C(=O)N1CCC[C@H]1C(=O)O [Abz-GF(NO2)P, o-aminobenzoyl-glycyl-p-nitro-L-phenylalanyl-L-proline] (H-[2Abz]G[Phe(4-NO2)]P-OH)
Km (ACE): 190 µM | kcat (ACE; Ref. [17]-[20]): 1.5 s⁻¹ | kcat/Km (ACE; Ref. [17]-[20]): 7.7 × 10^3 M^-1 S^-1

O=C(O)CNC(=O)[C@H](Cc1c[nH]c2ccccc12)NC(=O)[C@H](Cc1ccccc1)NC(=O)CCC(=O)NCCNc1cccc2c(S(=O)(=O)O)cccc12 [ES-FWG] ({EDANS-Suc}-Phe-Trp-Gly-OH)
solubility [1]: 7000 to 40000 µg/mL

CC(C)C[C@H](NC(=O)[C@H](Cc1c[nH]c2ccccc12)NC(=O)[C@H](Cc1ccccc1)NC(=O)CCC(=O)NCCNc1cccc2c(S(=O)(=O)O)cccc12)C(=O)O [ES-FWL] ({EDANS-Suc}-Phe-Trp-Leu-OH)
solubility [1]: 7000 to 40000 µg/mL

O=C(CCC(=O)N[C@@H](Cc1ccccc1)C(=O)N[C@@H](Cc1c[nH]c2ccccc12)C(=O)N[C@@H](Cc1c[nH]cn1)C(=O)O)NCCNc1cccc2c(S(=O)(=O)O)cccc12 [ES-FWH] ({EDANS-Suc}-Phe-Trp-His-OH)
solubility [1]: 7000 to 40000 µg/mL

O=C(CCC(=O)N[C@@H](Cc1ccccc1)C(=O)N[C@@H](Cc1c[nH]cn1)C(=O)N[C@@H](Cc1c[nH]c2ccccc12)C(=O)O)NCCNc1cccc2c(S(=O)(=O)O)cccc12 [ES-FHW] ({EDANS-Suc}-Phe-His-Trp-OH)
solubility [1]: 7000 to 40000 µg/mL

O=C(O)CNC(=O)[C@H](Cc1c[nH]c2ccccc12)NC(=O)CNC(=O)OCc1ccc([N+](=O)[O-])cc1 [Z(NO2)-GWG, p-nitrobenzyloxycarbonylglycyl-L-tryptophyl-glycine]
Km (ACE): 900 µM

NCCCC[C@H](NC(=O)[C@H](Cc1c[nH]c2ccccc12)NC(=O)[C@H](Cc1ccccc1)NC(=O)CCC(=O)NCCNc1cccc2c(S(=O)(=O)O)cccc12)C(=O)O [ES-FWK] ({EDANS-Suc}-Phe-Trp-Lys-OH)
solubility [1]: 7000 to 40000 µg/mL

B1: ACE (from rabbit lung, Sigma Chemical Co.) (Oryctolagus cuniculus) (protein)
chain: TLDPGLLPGDFAADEAGARLFASSYNSSAEQVLFRSTAASWAHDTNITAENARRQEEEALLSQEFAEAWGKKAKELYDPVWQNFTDPELRRIIGAVRTLGPANLPLAKRQQYNSLLSNMSQIYSTGKVCFPNKTASCWSLDPDLNNILASSRSYAMLLFAWEGWHNAVGIPLKPLYQEFTALSNEAYRQDGFSDTGAYWRSWYDSPTFEEDLERIYHQLEPLYLNLHAYVRRVLHRRYGDRYINLRGPIPAHLLGNMWAQSWESIYDMVVPFPDKPNLDVTSTMVQKGWNATHMFRVAEEFFTSLGLLPMPPEFWAESMLEKPEDGREVVCHASAWDFYNRKDFRIKQCTQVTMDQLSTVHHEMGHVQYYLQYKDQPVSLRRANPGFHEAIGDVLALSVSTPAHLHKIGLLDHVTNDTESDINYLLKMALEKIAFLPFGYLVDQWRWGVFSGRTPSSRYNFDWWYLRTKYQGICPPVVRNETHFDAGAKFHIPSVTPYIRYFVSFVLQFQFHQALCMEAGHQGPLHQCDIYQSTRAGAKLRAVLQAGCSRPWQEVLKDMVASDALDAQPLLDYFQPVTQWLQEQNERNGEVLGWPEYQWRPPLPNNYPEGIDLVTDEAEASRFVEEYDRSFQAVWNEYAEANWNYNTNITTEASKILLQKNMQIANHTLTYGNWARRFDVSNFQNATSKRIIKKVQDLQRAVLPVKELEEYNQILLDMETIYSVANVCRVDGSCLQLEPDLTNLMATSRKYDELLWVWTSWRDKVGRAILPYFPKYVEFTNKAARLNGYVDAGDSWRSMYETPTLEQDLERLFQELQPLYLNLHAYVGRALHRHYGAQHINLEGPIPAHLLGNMWAQTWSNIYDLVAPFPSASTMDATEAMIKQGWTPRRMFEEADKFFISLGLLPVPPEFWNKSMLEKPTDGREVVCHASAWDFYNGKDFRIKQCTTVNMEDLVVVHHEMGHIQYFMQYKDLPVALREGANPGFHEAIGDVLALSVSTPKHLHSINLLSSEGGGYEHDINFLMKMALDKIAFIPFSYLVDEWRWRVFDGSITKENYNQEWWSLRLKYQGLCPPAPRSQGDFDPGAKFHIPSSVPYIRYFVSFIIQFQFHEALCKAAGHTGPLHTCDIYQSKEAGKRLADAMKLGYSKPWPEAMKVITGQPNMSASAMMNYFKPLMDWLLTENGRHGEKLGWPQYTWTPNSARSEGSLPDSGRVNFLGMNLDAQQARVGQWVLLFLGVALLLASLGLTQRLFSIRYQSLRQPHHGPQFGSEVELRHS
notes: ACE (from rabbit lung, Sigma Chemical Co.); purchased Sigma Chemical Co; host or cells: rabbit lung (tissue)
Km [2]: 23 µM | kcat [2]: 2.0 s⁻¹ | kcat/Km [2]: 8.9 × 10^4 M^-1 S^-1 | Km [3]: 15 µM | kcat [3]: 2.0 s⁻¹ | kcat/Km [3]: 1.3 × 10^5 M^-1 S^-1 | Km [4]: 24 µM | kcat [4]: 3.8 s⁻¹ | kcat/Km [4]: 1.6 × 10^5 M^-1 S^-1 | Km [5]: 2.7 µM | kcat [5]: 0.9 s⁻¹ | kcat/Km [5]: 3.2 × 10^5 M^-1 S^-1 | Km [6]: 4.5 µM | kcat [6]: 2.1 s⁻¹ | kcat/Km [6]: 4.6 × 10^5 M^-1 S^-1 | Km [7]: 4.9 µM | kcat [7]: 0.8 s⁻¹ | kcat/Km [7]: 1.7 × 10^5 M^-1 S^-1
